Drawing on paper doi:10.1101/864769, this text covers Kd for one substance.

pKd: −log10 of the molar value.

The target in this assay is CP-capped actin filament barbed ends (not stated | chicken) (UniProt P60709). Briefly: single-filament uncapping assay.

The substance “mouse twinfilin-1 (from UniProt Q91YR1 1-350) (natural protein)” gave a pKd of 6.52.

For orientation: pKd means the Kd on a negative log10 scale, so that one unit is a factor of ten.
